Molecular target: Aggrecan (UniProt P13608)
Assay: solid phase binding assay (ELISA-type, HRP anti-human IgG Fc, OPD colorimetric)
Conditions: PTPσ-Fc 80 nM, wells coated with aggrecan 10 μg/ml, read off a plot

UniProt P13608, sequence (P13608 17-2364): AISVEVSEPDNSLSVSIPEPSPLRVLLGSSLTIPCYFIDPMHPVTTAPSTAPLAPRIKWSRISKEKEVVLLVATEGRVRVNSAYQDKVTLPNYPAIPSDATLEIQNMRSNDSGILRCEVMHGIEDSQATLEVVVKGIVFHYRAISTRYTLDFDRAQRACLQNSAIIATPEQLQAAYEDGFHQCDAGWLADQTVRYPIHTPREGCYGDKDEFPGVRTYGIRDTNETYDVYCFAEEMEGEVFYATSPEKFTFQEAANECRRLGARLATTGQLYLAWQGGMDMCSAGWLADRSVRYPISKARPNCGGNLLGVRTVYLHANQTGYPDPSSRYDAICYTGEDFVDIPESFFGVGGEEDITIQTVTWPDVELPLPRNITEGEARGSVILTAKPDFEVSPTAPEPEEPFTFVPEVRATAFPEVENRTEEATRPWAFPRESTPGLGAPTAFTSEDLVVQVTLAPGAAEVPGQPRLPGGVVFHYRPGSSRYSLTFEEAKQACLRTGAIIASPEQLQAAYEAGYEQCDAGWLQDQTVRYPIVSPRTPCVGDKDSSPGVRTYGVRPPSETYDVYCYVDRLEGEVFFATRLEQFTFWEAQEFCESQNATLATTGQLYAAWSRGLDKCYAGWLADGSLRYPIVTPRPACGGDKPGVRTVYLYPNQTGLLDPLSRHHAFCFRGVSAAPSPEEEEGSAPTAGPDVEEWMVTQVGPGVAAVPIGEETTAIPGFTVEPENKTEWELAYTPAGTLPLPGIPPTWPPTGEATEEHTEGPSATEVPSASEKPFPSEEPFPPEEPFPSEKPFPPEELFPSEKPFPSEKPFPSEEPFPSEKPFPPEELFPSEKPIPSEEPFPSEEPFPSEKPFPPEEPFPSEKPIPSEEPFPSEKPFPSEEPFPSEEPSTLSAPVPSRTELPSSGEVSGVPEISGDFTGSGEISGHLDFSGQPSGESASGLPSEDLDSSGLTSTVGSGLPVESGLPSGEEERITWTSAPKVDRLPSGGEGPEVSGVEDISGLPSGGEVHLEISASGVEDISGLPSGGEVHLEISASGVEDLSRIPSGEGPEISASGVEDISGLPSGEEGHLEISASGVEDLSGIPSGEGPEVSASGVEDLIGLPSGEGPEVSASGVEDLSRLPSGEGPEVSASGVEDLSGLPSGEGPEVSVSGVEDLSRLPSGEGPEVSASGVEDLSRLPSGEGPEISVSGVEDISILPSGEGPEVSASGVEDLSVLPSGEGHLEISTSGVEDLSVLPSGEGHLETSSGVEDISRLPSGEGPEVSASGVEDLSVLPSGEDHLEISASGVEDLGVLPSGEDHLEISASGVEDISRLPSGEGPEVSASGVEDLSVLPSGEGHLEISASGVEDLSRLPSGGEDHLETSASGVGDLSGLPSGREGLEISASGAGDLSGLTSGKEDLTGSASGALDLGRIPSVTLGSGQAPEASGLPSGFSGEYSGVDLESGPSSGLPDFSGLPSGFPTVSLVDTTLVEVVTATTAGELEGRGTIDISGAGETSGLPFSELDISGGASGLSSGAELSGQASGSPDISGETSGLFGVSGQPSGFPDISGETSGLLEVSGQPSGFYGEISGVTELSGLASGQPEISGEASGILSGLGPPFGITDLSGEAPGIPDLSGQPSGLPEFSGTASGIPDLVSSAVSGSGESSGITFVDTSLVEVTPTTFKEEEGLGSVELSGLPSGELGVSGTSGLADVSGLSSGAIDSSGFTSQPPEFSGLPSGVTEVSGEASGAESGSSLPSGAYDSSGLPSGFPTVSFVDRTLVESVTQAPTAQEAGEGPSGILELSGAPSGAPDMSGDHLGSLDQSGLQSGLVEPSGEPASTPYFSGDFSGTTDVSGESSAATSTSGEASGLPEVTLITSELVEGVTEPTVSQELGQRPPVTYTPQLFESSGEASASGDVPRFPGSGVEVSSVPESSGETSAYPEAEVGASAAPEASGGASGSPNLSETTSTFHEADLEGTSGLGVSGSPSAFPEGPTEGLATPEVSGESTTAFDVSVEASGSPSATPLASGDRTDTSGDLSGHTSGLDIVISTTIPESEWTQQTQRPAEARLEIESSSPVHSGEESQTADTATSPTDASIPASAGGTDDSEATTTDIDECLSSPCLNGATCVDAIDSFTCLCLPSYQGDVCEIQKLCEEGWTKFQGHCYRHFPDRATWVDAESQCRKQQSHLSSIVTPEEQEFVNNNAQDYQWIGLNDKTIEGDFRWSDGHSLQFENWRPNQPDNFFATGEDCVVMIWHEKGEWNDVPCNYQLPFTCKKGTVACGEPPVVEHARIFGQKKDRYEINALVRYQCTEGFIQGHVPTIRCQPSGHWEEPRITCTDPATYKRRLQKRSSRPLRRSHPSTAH

response (HB-GAM 0 nM, parent: est. 1.2): 0.081 A450 | response (HB-GAM 10 nM, parent: est. 0.88): 0.085 A450 | response (HB-GAM 20 nM, parent: est. 0.64): 0.085 A450 | response (HB-GAM 40 nM, parent: est. 0.43): 0.084 A450 | response (HB-GAM 80 nM, parent: est. 0.31): 0.083 A450 | response (HB-GAM 160 nM, parent: est. 0.25): 0.083 A450 | response (HB-GAM 320 nM, parent: est. 0.23): 0.084 A450
Substance: PTPσ (protein tyrosine phosphatase sigma) N-terminal extracellular part with the three Ig domains, Fc-tagged, wild type (from UniProt B0V2N1) PTPσ mutant (lacks the CS binding site; substitutions not printed)
